Experimental findings from publication PMC12416549 (2024) are described below.

The target in this assay is T1, TNFR1 (Homo sapiens, UniProt P19438).
T1 chain: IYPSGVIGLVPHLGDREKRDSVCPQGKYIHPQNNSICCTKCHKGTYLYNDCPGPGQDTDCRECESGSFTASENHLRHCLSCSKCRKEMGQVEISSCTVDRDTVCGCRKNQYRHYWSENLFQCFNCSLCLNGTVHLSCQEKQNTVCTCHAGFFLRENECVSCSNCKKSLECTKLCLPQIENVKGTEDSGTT
Put plainly: yeast display SC50.

B1: A90M (designed binder)
chain: MTLQELLREEALRRAEAEAFRYALELLAEKFPEQKEYLLDLAEEIESQIRSLSGVDVEDVRKFLDKEWAWVKELLAEHPAELAEVEAARMARLAELRAEVEAKVAA
With B1, the “apparent Kd (screen)” value was found to be 0.539 nM.

B2: V85T (designed binder)
chain: MTLQELLREEALRRAEAEAFRYALELLAEKFPEQKEYLLDLAEEIESQIRSLSGVDVEDVRKFLDKEWAWVKELLAEHPAELAETEAARAARLAELRAEVEAKVAA
For B2, the “apparent Kd (screen)” value amounted to 0.446 nM.

B3: S47T (designed binder)
chain: MTLQELLREEALRRAEAEAFRYALELLAEKFPEQKEYLLDLAEEIETQIRSLSGVDVEDVRKFLDKEWAWVKELLAEHPAELAEVEAARAARLAELRAEVEAKVAA
In the case of B3, the “apparent Kd (screen)” value was 0.653 nM.

B4: E58S (designed binder)
chain: MTLQELLREEALRRAEAEAFRYALELLAEKFPEQKEYLLDLAEEIESQIRSLSGVDVSDVRKFLDKEWAWVKELLAEHPAELAEVEAARAARLAELRAEVEAKVAA
Turning to B4, the “apparent Kd (screen)” value was determined as 0.593 nM.

B5: L75T (designed binder)
chain: MTLQELLREEALRRAEAEAFRYALELLAEKFPEQKEYLLDLAEEIESQIRSLSGVDVEDVRKFLDKEWAWVKELTAEHPAELAEVEAARAARLAELRAEVEAKVAA
As to B5, the “apparent Kd (screen)” value was found to be 0.869 nM.

B6: K72H (designed binder)
chain: MTLQELLREEALRRAEAEAFRYALELLAEKFPEQKEYLLDLAEEIESQIRSLSGVDVEDVRKFLDKEWAWVHELLAEHPAELAEVEAARAARLAELRAEVEAKVAA
Turning to B6, the “apparent Kd (screen)” value stood at 0.49 nM.

B7: K35H (designed binder)
chain: MTLQELLREEALRRAEAEAFRYALELLAEKFPEQHEYLLDLAEEIESQIRSLSGVDVEDVRKFLDKEWAWVKELLAEHPAELAEVEAARAARLAELRAEVEAKVAA
On to B7, for which the “apparent Kd (screen)” value was 0.446 nM.

B8: V100C (designed binder)
chain: MTLQELLREEALRRAEAEAFRYALELLAEKFPEQKEYLLDLAEEIESQIRSLSGVDVEDVRKFLDKEWAWVKELLAEHPAELAEVEAARAARLAELRAECEAKVAA
As to B8, the “apparent Kd (screen)” value worked out at 0.446 nM.

B9: A94Q (designed binder)
chain: MTLQELLREEALRRAEAEAFRYALELLAEKFPEQKEYLLDLAEEIESQIRSLSGVDVEDVRKFLDKEWAWVKELLAEHPAELAEVEAARAARLQELRAEVEAKVAA
For B9, the “apparent Kd (screen)” value came out at 0.79 nM.

B10: E58W (designed binder)
chain: MTLQELLREEALRRAEAEAFRYALELLAEKFPEQKEYLLDLAEEIESQIRSLSGVDVWDVRKFLDKEWAWVKELLAEHPAELAEVEAARAARLAELRAEVEAKVAA
Regarding B10, the “apparent Kd (screen)” value was determined as 0.653 nM.

B11: W68V (designed binder)
chain: MTLQELLREEALRRAEAEAFRYALELLAEKFPEQKEYLLDLAEEIESQIRSLSGVDVEDVRKFLDKEVAWVKELLAEHPAELAEVEAARAARLAELRAEVEAKVAA
Regarding B11, the “apparent Kd (screen)” value amounted to 4.39 nM.

B12: E36R (designed binder)
chain: MTLQELLREEALRRAEAEAFRYALELLAEKFPEQKRYLLDLAEEIESQIRSLSGVDVEDVRKFLDKEWAWVKELLAEHPAELAEVEAARAARLAELRAEVEAKVAA
B12: the “apparent Kd (screen)” value was 0.653 nM.

B13: E99T (designed binder)
chain: MTLQELLREEALRRAEAEAFRYALELLAEKFPEQKEYLLDLAEEIESQIRSLSGVDVEDVRKFLDKEWAWVKELLAEHPAELAEVEAARAARLAELRATVEAKVAA
In the case of B13, the “apparent Kd (screen)” value stood at 0.79 nM.

B14: Y37W (designed binder)
chain: MTLQELLREEALRRAEAEAFRYALELLAEKFPEQKEWLLDLAEEIESQIRSLSGVDVEDVRKFLDKEWAWVKELLAEHPAELAEVEAARAARLAELRAEVEAKVAA
As to B14, the “apparent Kd (screen)” value was found to be 3.3 nM.

B15: A28G (designed binder)
chain: MTLQELLREEALRRAEAEAFRYALELLGEKFPEQKEYLLDLAEEIESQIRSLSGVDVEDVRKFLDKEWAWVKELLAEHPAELAEVEAARAARLAELRAEVEAKVAA
B15: the “apparent Kd (screen)” value was determined as 0.446 nM.

B16: S51D (designed binder)
chain: MTLQELLREEALRRAEAEAFRYALELLAEKFPEQKEYLLDLAEEIESQIRDLSGVDVEDVRKFLDKEWAWVKELLAEHPAELAEVEAARAARLAELRAEVEAKVAA
With B16, the “apparent Kd (screen)” value amounted to 2.05 nM.

B17: A105S (designed binder)
chain: MTLQELLREEALRRAEAEAFRYALELLAEKFPEQKEYLLDLAEEIESQIRSLSGVDVEDVRKFLDKEWAWVKELLAEHPAELAEVEAARAARLAELRAEVEAKVSA
Regarding B17, the “apparent Kd (screen)” value turned out to be 0.79 nM.

B18: K72P (designed binder)
chain: MTLQELLREEALRRAEAEAFRYALELLAEKFPEQKEYLLDLAEEIESQIRSLSGVDVEDVRKFLDKEWAWVPELLAEHPAELAEVEAARAARLAELRAEVEAKVAA
Consider B18, for which the “apparent Kd (screen)” value was 11.4 nM.

B19: A80M (designed binder)
chain: MTLQELLREEALRRAEAEAFRYALELLAEKFPEQKEYLLDLAEEIESQIRSLSGVDVEDVRKFLDKEWAWVKELLAEHPMELAEVEAARAARLAELRAEVEAKVAA
B19: the “apparent Kd (screen)” value is 0.49 nM.

B20: E18R (designed binder)
chain: MTLQELLREEALRRAEARAFRYALELLAEKFPEQKEYLLDLAEEIESQIRSLSGVDVEDVRKFLDKEWAWVKELLAEHPAELAEVEAARAARLAELRAEVEAKVAA
As for B20, the “apparent Kd (screen)” value was found to be 0.718 nM.

B21: E36T (designed binder)
chain: MTLQELLREEALRRAEAEAFRYALELLAEKFPEQKTYLLDLAEEIESQIRSLSGVDVEDVRKFLDKEWAWVKELLAEHPAELAEVEAARAARLAELRAEVEAKVAA
For B21, the “apparent Kd (screen)” value was 2.25 nM.

B22: K62W (designed binder)
chain: MTLQELLREEALRRAEAEAFRYALELLAEKFPEQKEYLLDLAEEIESQIRSLSGVDVEDVRWFLDKEWAWVKELLAEHPAELAEVEAARAARLAELRAEVEAKVAA
As for B22, the “apparent Kd (screen)” value worked out at 0.593 nM.

B23: P32H (designed binder)
chain: MTLQELLREEALRRAEAEAFRYALELLAEKFHEQKEYLLDLAEEIESQIRSLSGVDVEDVRKFLDKEWAWVKELLAEHPAELAEVEAARAARLAELRAEVEAKVAA
B23: the “apparent Kd (screen)” value worked out at 0.79 nM.

B24: L93A (designed binder)
chain: MTLQELLREEALRRAEAEAFRYALELLAEKFPEQKEYLLDLAEEIESQIRSLSGVDVEDVRKFLDKEWAWVKELLAEHPAELAEVEAARAARAAELRAEVEAKVAA
For the molecule B24, the “apparent Kd (screen)” value worked out at 1.4 nM.

B25: D56T (designed binder)
chain: MTLQELLREEALRRAEAEAFRYALELLAEKFPEQKEYLLDLAEEIESQIRSLSGVTVEDVRKFLDKEWAWVKELLAEHPAELAEVEAARAARLAELRAEVEAKVAA
B25: the “apparent Kd (screen)” value was determined as 2.48 nM.
